Data from patent publication US20190091326A1.

What was measured:
[1] = biological target: 108060 I169K/E172V/T161M/N156I V1/V2 scaffold, gD-tagged, produced in GnTI- 293 HEK cells (herpes simplex virus 1; HIV-1 isolate 108060); assay: ELISA; table row 108060 I169K/E172V/T161M/N156I, GnTI-
CAP.45 V1/V2 wt (293) = assay: ELISA; table row CAP.45 V1/V2 wt, column 293
ZM233 mutant + N156 = assay: ELISA, PG9 titrated, absorbance 490 nm
ZM233 mutant - N156 = assay: ELISA, PG9 titrated, absorbance 490 nm
[2] = biological target: 1209 V1/V2/V3/C3 scaffold grown in GnTI- cells; assay: ELISA, mAb titrated on scaffold, absorbance 492 nm; curve 505 (1209 GNTI-)
[3] = biological target: ZM233 V1/V2 scaffold, wildtype, gD-tagged, produced in normal 293 HEK cells (herpes simplex virus 1; HIV-1 isolate ZM233); assay: capture ELISA on 34.1 anti-gD; scaffold made in normal 293 cells
Bal.01 V1/V2 wt (GnTI-) = assay: ELISA; table row Bal.01 V1/V2 wt, GnTI-
[4] = biological target: 108060 I169K/E172V/T161M/N156I/S164P/L165G V1/V2 scaffold, gD-tagged, produced in GnTI- 293 HEK cells (herpes simplex virus 1; HIV-1 isolate 108060); assay: ELISA; table row 108060 V1/V2.eng2**, GnTI-
[5] = biological target: JRFL-E168K V1/V2 scaffold, wildtype, gD-tagged, produced in normal 293 HEK cells (herpes simplex virus 1; HIV-1 isolate JRFL) (UniProt Q69091); assay: ELISA; table row JRFL-E168K V1/V2 wt, column 293
[6] = biological target: JRFL-E168K V1/V2 scaffold, wildtype, gD-tagged, produced in GnTI- 293 HEK cells (herpes simplex virus 1; HIV-1 isolate JRFL) (UniProt Q69091); assay: ELISA; table row JRFL-E168K V1/V2 wt, GnTI-
[7] = biological target: 108060 I169K/E172V/T161M/N156I/S164G/D167G V1/V2 scaffold, gD-tagged, produced in normal 293 HEK cells (herpes simplex virus 1; HIV-1 isolate 108060); assay: ELISA; table row 108060 V1/V2.eng1*, column 293
[8] = biological target: A244 V1/V2 scaffold, engineered, Strep-tag/6x Histidine-tag, produced in normal 293 cells (HIV-1 isolate A244); assay: SPR (Biacore 3000), PG9 captured by anti-human Fc, scaffold flowed
[9] = biological target: A244 V1/V2 scaffold, wildtype (unmutated), Strep-tag/6x Histidine-tag, expressed in GnTI- cells (HIV-1 isolate A244); assay: as above
[10] = biological target: MN V1/V2 scaffold, engineered, gD-tagged, produced in normal 293 HEK cells (herpes simplex virus 1; HIV-1 isolate MN); assay: capture ELISA on 34.1 anti-gD; purified scaffold made in 293 cells
[11] = biological target: 108060 I169K/E172V/T161M/N156I/S164G/D167G V1/V2 scaffold, gD-tagged, produced in normal 293 HEK cells (herpes simplex virus 1; HIV-1 isolate 108060); assay: as above
[12] = biological target: A244 V1/V2 scaffold, engineered, gD-tagged, produced in normal 293 HEK cells (herpes simplex virus 1; HIV-1 isolate A244) (UniProt Q69091); assay: as above
[13] = biological target: JRFL-E168K V1/V2 scaffold, engineered, gD-tagged, produced in normal 293 HEK cells (herpes simplex virus 1; HIV-1 isolate JRFL); assay: as above
[14] = biological target: ZM233 V1/V2 scaffold, engineered, gD-tagged, produced in normal 293 HEK cells (herpes simplex virus 1; HIV-1 isolate ZM233); assay: as above
MN mutant, Mock = assay: ELISA of mock- or Endo H-digested scaffold, PG9 titrated, absorbance 490 nm
ZM233 mutant, Mock = assay: as above
[15] = biological target: 108060 V1/V2 scaffold, wildtype, gD-tagged, produced in normal 293 HEK cells (herpes simplex virus 1; HIV-1 isolate 108060); assay: ELISA; table row 108060 V1/V2 wt, column 293
[16] = biological target: MN V1/V2 scaffold, engineered, gD-tagged, produced in GnTI- 293 HEK cells (herpes simplex virus 1; HIV-1 isolate MN); assay: ELISA; table row MN V1/V2.eng1*, GnTI-
[17] = biological target: MN V1/V2 scaffold, wildtype, gD-tagged, produced in GnTI- 293 HEK cells (herpes simplex virus 1; HIV-1 isolate MN) (UniProt Q69091); assay: ELISA; table row MN V1/V2 wt, GnTI-
[18] = biological target: ZM233 V1/V2 scaffold, wildtype, gD-tagged, produced in normal 293 HEK cells (herpes simplex virus 1; HIV-1 isolate ZM233); assay: ELISA; table row ZM233 V1/V2 wt, column 293
[19] = biological target: JRFL-E168K V1/V2 scaffold, engineered, gD-tagged, produced in normal 293 HEK cells (herpes simplex virus 1; HIV-1 isolate JRFL); assay: ELISA; table row JRFL-E168K V1/V2.eng1*, column 293
[20] = biological target: MN V1/V2 scaffold, wildtype, gD-tagged, produced in normal 293 HEK cells (herpes simplex virus 1; HIV-1 isolate MN) (UniProt Q69091); assay: ELISA; table row MN V1/V2 wt, column 293

Substance: PG9 monoclonal antibody
- EC50 [1]: 0.0281 µg/mL
- EC50 (CAP.45 V1/V2 wt (293)): 0.312 µg/mL
- EC50 (read off the curve) (ZM233 mutant + N156): 0.1 µg/mL
- EC50 (read off the curve) (ZM233 mutant - N156): 0.03 µg/mL
- EC50 [2]: 0.14 µg/mL
- EC50 [3]: 0.0771 µg/mL
- EC50 (Bal.01 V1/V2 wt (GnTI-)): 0.0802 µg/mL
- EC50 [4]: 0.00834 µg/mL
- EC50 [5]: > 10 µg/mL
- EC50 [6]: > 10 µg/mL
- EC50 [7]: 0.093 µg/mL
- koff [8]: 0.0019 s⁻¹
- koff [9]: 0.00077 s⁻¹
- EC50 [10]: 0.0274 µg/mL
- EC50 [11]: 0.093 µg/mL
- EC50 [12]: 0.0991 µg/mL
- EC50 [13]: 0.0473 µg/mL
- EC50 [14]: 0.00227 µg/mL
- EC50 (read off the curve) (MN mutant, Mock): 0.1 µg/mL
- EC50 (read off the curve) (ZM233 mutant, Mock): 0.03 µg/mL
- EC50 [15]: > 10 µg/mL
- EC50 [16]: 0.00796 µg/mL
- EC50 [17]: > 10 µg/mL
- EC50 [18]: 0.077 µg/mL
- EC50 [19]: 0.0473 µg/mL
- EC50 [20]: > 10 µg/mL
